T1: Boi1 SH3 (BOI1_YEAST), P38041
T1 chain: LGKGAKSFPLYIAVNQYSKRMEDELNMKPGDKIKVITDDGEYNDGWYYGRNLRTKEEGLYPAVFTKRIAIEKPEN

T2: Boi2 SH3 (BOI2_YEAST), P39969
T2 chain: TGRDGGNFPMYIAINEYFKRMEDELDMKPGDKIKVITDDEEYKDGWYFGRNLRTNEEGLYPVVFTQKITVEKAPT

T3: Rvs167 SH3 (RV167_YEAST), P39743
T3 chain: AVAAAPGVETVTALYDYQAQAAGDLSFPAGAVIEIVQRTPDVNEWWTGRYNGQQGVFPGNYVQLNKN

T4: Yfr024 SH3 (LSB3_YEAST), P43603
T4 chain: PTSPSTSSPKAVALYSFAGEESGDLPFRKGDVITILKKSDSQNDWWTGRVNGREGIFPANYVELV

T5: Yhr016c SH3 (YSC84_YEAST), P32793
T5 chain: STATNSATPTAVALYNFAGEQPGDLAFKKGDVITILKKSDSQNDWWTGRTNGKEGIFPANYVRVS


Tests used:
Experiment in all cases: SPOT array
[1] = target: T1, Boi1 SH3 (BOI1_YEAST), P38041
[2] = target: T2, Boi2 SH3 (BOI2_YEAST), P39969
[3] = target: T3, Rvs167 SH3 (RV167_YEAST), P39743
[4] = target: T4, Yfr024 SH3 (LSB3_YEAST), P43603
[5] = target: T5, Yhr016c SH3 (YSC84_YEAST), P32793

Row | Binder | normalised SPOT signal, Boehringer light units (BLU); mean over the file's lines of this peptide [1] | normalised SPOT signal, Boehringer light units (BLU); mean over the file's lines of this peptide [2] | normalised SPOT signal, Boehringer light units (BLU); mean over the file's lines of this peptide [3] | normalised SPOT signal, Boehringer light units (BLU); mean over the file's lines of this peptide [4] | normalised SPOT signal, Boehringer light units (BLU); mean over the file's lines of this peptide [5]
1 | ITLPRRPAKKIQLG [YBR122C 41-54] | 150 | 106 | 13700 | 48600 | 36800
2 | ISTPEVPKKKIKTG [YIL010W 28-41] | 275 | 23.9 | 0 | 4970 | 226
3 | KFIPNKPYRQFNTW [YGR019W 339-352] | 30.9 | 55.9 | 51.7 | 1220 | 417
4 | IQHPFLPRKIPIIT [YGR094W 408-421] | 327 | 192 | 35 | 1120 | 250
5 | KDHPYDPEKDSVLK [YGR020C 97-110] | 51.3 | 3.7 | 21.7 | 0 | 0
6 | INQPSTPKKLKRKS [YDR501W 316-329] | 152 | 22.2 | 62.6 | 2480 | 126
7 | ISTPPPPPKMAIPA [YFR019W 390-403] | 110 | 34.4 | 26.6 | 335 | 189
8 | IVNPFIPRRPYSNV [YDR409W 859-872] | 1120 | 142 | 650 | 7710 | 1650
9 | KFHPPEPYKGKGIY [YHR147C 187-200] | 96.1 | 38.2 | 53.2 | 45.7 | 114
10 | IPTPSKPLKKRKKR [YCL027W 390-403] | 97.5 | 50.2 | 85 | 1580 | 213
11 | KALPKEPKKLLPNS [YIR010W 422-435] | 208 | 63.5 | 44.4 | 284 | 2810

Results, then the binder that gave them:

Row | normalised SPOT signal, Boehringer light units (BLU); mean over the file's lines of this peptide [1] | normalised SPOT signal, Boehringer light units (BLU); mean over the file's lines of this peptide [2] | normalised SPOT signal, Boehringer light units (BLU); mean over the file's lines of this peptide [3] | normalised SPOT signal, Boehringer light units (BLU); mean over the file's lines of this peptide [4] | normalised SPOT signal, Boehringer light units (BLU); mean over the file's lines of this peptide [5] | Binder
12 | 119 | 74.7 | 39.9 | 43.8 | 99.2 | KDAPIEPPKYMGMG [YOR346W 673-686]
13 | 92 | 27.4 | 21.7 | 907 | 65.2 | KHAPFIPVKPALEK [YPR095C 158-171]
14 | 119 | 22 | 29.9 | 1070 | 6.2 | KELPEFPIKKYHKR [YMR266W 741-754]
15 | 90.8 | 48.8 | 17.6 | 108 | 130 | ISNPSSPAKTKRDI [YMR137C 188-201]
16 | 5520 | 1450 | 474 | 3280 | 683 | IYTPYIPFRNSRTW [YLR240W 75-88]
17 | 73 | 33.9 | 25.5 | 16 | 10.6 | KDYPLSPPKLTFTP [YMR022W 62-75]
18 | 168 | 23.8 | 10.8 | 326 | 60.1 | KERPKPPNKGDVGR [YOR233W 333-346]
19 | 60.8 | 79.1 | 22.7 | 1120 | 185 | ISRPVQPFKVGSIG [YPR185W 368-381]
20 | 86.7 | 166 | 41.2 | 94.5 | 207 | IRYPVTPNKASLDR [YOR384W 132-145]
21 | 142 | 64.9 | 83.7 | 995 | 792 | KGAPFFPNKTFRKL [YPR144C 138-151]
22 | 181 | 35.5 | 31300 | 39300 | 93200 | ITSPPLPPRADSIE [YMR192W 122-135]

From publication PMC314469, “Protein Interaction Networks by Proteome Peptide Scanning” (PLoS Biology, 2004)
